Test results: patent US9885050B2, “Molecular affinity clamp technology and uses thereof” (The University of Chicago, priority 2007, dated 2018)
Like-named read-outs stand apart in the source and are kept apart here.

Experiments:
Pin1 WW domain = Pin1 WW domain (Homo sapiens, UniProt Q13526); details: For eWW (Pin1 WW); read-out: Affinity if known; cited from earlier work
Grb2-SH2 domain = biological target: T1, Grb2-SH2 domain (Homo sapiens, UniProt P62993); details: For eSH2 (Grb2); read-out: Affinity if known; cited from earlier work
T1 construct: The SH2 domain of Grb2 (“Grb2-SH2” hereafter) is ˜98 residue autonomously folded domain

[1] = biological target: T2, ARVCF peptide (PQPVDSWV-COOH) (Homo sapiens, UniProt O00192); test: Surface plasmon resonance (SPR, BIAcore) analysis of motif binding, ARVCF peptide; details: for koff / kon: for the ARVCF peptide; for Affinity Enhancement: ratio of Kd of parent protein (cpPDZFN) for ARVCF to that of the affinity clamp
T2 construct: made in house; host or cells: E. coli
Source text: (§1) Using semi-automated methods, the phage display library was sorted using an eight-residue motif (SEQ ID NO: 148) corresponding to the ARVCF C-terminus. […] The maximal motif/affinity concentrations are indicated. In B, C and F, the on and off rates are also shown on the left and right sides, respectively. […] After four rounds of sorting, two clones with high affinity were identified to the ARVCF peptide motif. ePDZ-a (SEQ ID NO: 149) and ePDZ-b (SEQ ID NO: 150) are thus (referred to as “enhanced PDZ-a” and “enhanced PDZ-b” or simply “ePDZ-a” and “ePDZ-b” respectively) potential affinity clamp candidates.
These two clones were characterized as soluble proteins.
One method to improve affinity of the affinity clamp is to improve the interaction interface of the enhancer domain (e.g. the FN3 domain). […] The two second-generation variants, ePDZ-b1 (SEQ ID NO: 151) and ePDZ-b2 (SEQ ID NO: 143), were prepared as protein samples and their binding properties were analyzed using SPR. […] The affinity enhancement primarily originated from reduced dissociation rates.
A disulfide-constrained peptide was used as an enhancer domain. A peptide-PDZ affinity clamp was designed in which the diversified peptide segment was N-terminal connected to the circularly permutated PDZ domain (cpPDZ) described above. (See, FIG. F1 showing an affinity clamp constructed with Cys-constrained peptide as an enhancer domain in which (A) is a schematic drawing of the affinity clamp. Note that the peptide is attached to the N-terminus of the interaction domain. (B, C) are saturation curves of the parent PDZ (B) and peptide-PDZ Affinity Clamp (C) determined using surface plasmon resonance (SPR). SPR experiments were performed in the equilibrium mode, and the SPR response is plotted as a function of the concentration of the target peptide. The target peptide fused to the yeast SUMO protein was used in these measurements. The curves show the best fit of the 1:1 binding model to the data. The Kd values are also shown.)

[2] = biological target: T3, δ-catenin peptide (PASPDSWV-COOH) (Homo sapiens, UniProt Q9UQB3); test: Surface plasmon resonance (SPR, BIAcore) analysis of motif binding, δ-catenin peptide; details: for Kd: SPR; for Specificity Index: ratio of Kd for δ-catenin to Kd for ARVCF
T3 construct: yeast SUMO (N); made in house
Source text: as §1
The binding specificity of the ePDZ clones was investigated. In addition to the ARVCF motif, wild-type erbin PDZ also binds to the C-terminus of δ-catenin with a low μM Kd. The two sequences differ only at positions outside the core recognition motif, DSWV (SEQ ID NO: 69) —COOH (Table 2). The affinity enhancement of ePDZ-a was similar for both targets. Remarkably, the ePDZ-b clone had very weak binding to δ-catenin, similar to the wild-type PDZ domain, showing that ePDZ-b discriminates between the two targets by ˜200 fold. Equally importantly, ePDZ-b discriminates amino acids outside the DSWV-COOH motif shared by the two peptides (Table 2), and thus, it expanded the size of the target motif. The improved specificity is consistent with the molecular affinity clamp design where the enhancer domain binds to the motif surface presented on the PDZ domain and thus can “read” the motif sequence (FIG. C2).

[3] = biological target: T4, Ala-substituted ARVCF peptide (positions −7 to −4) (Homo sapiens, UniProt O00192, V958A); test: Alanine-scanning of the ARVCF peptide by SPR; assay type: binding; details: ARVCF peptide mutant
T4 construct: The tested positions are −7 to −4 in the ARVCF peptide (PQPVDSWV-COOH; mutated positions are underlined); yeast SUMO (N)
Experimental: (§2) To complement the library sorting experiments described above, Ala-scanning experiments of the ARVCF peptide were performed. When the goal is to define differences in the ability of ePDZ-a and ePDZ-b1 to recognize the differences between the ARVCF and δ-catenin peptides, only those positions that differ between the two peptides are analyzed.
(§3) Consistent with the peptide library sorting results, the ePDZ-b family was sensitive to Ala substitution mutations at all positions between −4 and −7. […] The results are shown in terms of changes in free energy change (ΔG=−RT ln(Kd^mutant/Kd^wild type)). […] The tested positions are −7 to −4 in the ARVCF peptide (PQPVDSWV-COOH; mutated positions are underlined). For each mutant, binding affinity was determined using surface plasmon resonance as described previously for the wild-type ARVCF peptide (69).

[4] = tested on: ARVCF target peptide (SUMO fusion) in E. coli lysate; test: Pull-down (immunoprecipitation) with biotinylated ePDZ's and streptavidin magnetic beads; assay type: binding; details: biotinylated clamp, streptavidin magnetic beads, E. coli lysate/cell extracts
Source text: (§4) The PDZ-FN3 affinity clamps functioned well in Western blotting and in immunoprecipitation (pull down) assays. […] Lane 6 is a negative control for the secondary, anti-FLAG antibody. In FIG. C6B, pull-down (immunoprecipitation), biotinylated ePDZ's and streptavidin (SA)-magnetic beads were used. The input (I), unbound (U), wash (W) and bound (B) fractions were separated with SDS-PAGE and detected with CBB. Note that this is not Western blotting, which would have given higher sensitivity and specificity. […] Note that most of nonspecific binding is due to the SA-magnetic beads (lane 13). […] It is noted that the relatively low recovery of the target in the pull-down assays may be due to the fact that the off-rate was optimized for these clamps (FIG. C3).
These Kd values and dissociation rates compare favorably to those for monoclonal antibodies. The reduced dissociation rate of an affinity clamp improves its usefulness in immunochemical applications.

ARVCF = biological target: T5, ARVCF (Homo sapiens, UniProt O00192); test: Western blotting of ARVCF in mammalian cell lysate; assay type: binding; details: vs commercial monoclonal antibody
T5 construct: host or cells: mammalian cell lysate
T5 sequence (O00192 1-962): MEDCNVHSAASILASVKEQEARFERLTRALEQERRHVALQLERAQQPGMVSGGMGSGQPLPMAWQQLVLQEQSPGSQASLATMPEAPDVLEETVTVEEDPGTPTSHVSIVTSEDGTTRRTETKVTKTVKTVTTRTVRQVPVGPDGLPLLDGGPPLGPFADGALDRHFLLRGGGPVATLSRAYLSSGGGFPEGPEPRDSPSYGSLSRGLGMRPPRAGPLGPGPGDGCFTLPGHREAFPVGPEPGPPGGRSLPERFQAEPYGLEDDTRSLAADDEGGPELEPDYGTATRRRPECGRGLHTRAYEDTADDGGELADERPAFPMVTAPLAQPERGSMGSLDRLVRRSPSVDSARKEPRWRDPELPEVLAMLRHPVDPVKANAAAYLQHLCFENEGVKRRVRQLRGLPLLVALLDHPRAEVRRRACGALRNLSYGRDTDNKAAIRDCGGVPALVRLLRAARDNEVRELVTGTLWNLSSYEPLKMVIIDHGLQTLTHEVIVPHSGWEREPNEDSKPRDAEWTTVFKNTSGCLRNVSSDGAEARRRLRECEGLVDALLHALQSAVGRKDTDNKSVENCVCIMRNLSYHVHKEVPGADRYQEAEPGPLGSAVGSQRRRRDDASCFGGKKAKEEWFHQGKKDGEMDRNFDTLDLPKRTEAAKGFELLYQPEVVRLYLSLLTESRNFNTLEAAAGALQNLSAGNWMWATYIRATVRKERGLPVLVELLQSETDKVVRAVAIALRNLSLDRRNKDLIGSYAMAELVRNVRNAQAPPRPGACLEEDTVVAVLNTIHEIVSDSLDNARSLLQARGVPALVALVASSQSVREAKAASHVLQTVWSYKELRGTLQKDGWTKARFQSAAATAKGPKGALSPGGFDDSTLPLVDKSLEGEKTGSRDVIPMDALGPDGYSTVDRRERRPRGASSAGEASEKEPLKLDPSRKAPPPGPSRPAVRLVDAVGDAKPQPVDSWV

[5] = tested on: SUMO-ARVCF fusion protein; test: Western blotting of SUMO-ARVCF fusion protein in E. coli lysate; assay type: binding; details: E. coli lysate containing 5 nanograms SUMO-ARVCF
Source text: as §4

ARVCF peptide = biological target: T6, ARVCF peptide (Homo sapiens, UniProt O00192); test: IC50 for the ARVCF peptide (Table 4); assay type: binding
T6 construct: made in house; host or cells: E. coli

[6] = tested on: Ala-substituted ARVCF peptide (positions −7 to −4); test: Alanine-scanning of the ARVCF peptide by SPR; assay type: binding; details: positions −7 to −4
Experimental: as §2, §3

[7] = Table 4, SPR, read-out: Kd [nM] ARVCF
[8] = Table 4, read-out: Kd [nM] δ-catenin
[9] = Table 2, SPR, read-out: Kd, ARVCF PQPVDSWV
[10] = Table 2, read-out: Kd, δ-catenin PASPDSWV

T1 sequence (P62993 60-152 limits assumed): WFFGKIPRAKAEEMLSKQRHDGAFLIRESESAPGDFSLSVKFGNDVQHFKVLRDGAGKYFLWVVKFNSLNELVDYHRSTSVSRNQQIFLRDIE
Sequence of Pin1 WW domain (Q13526 5-39 limits assumed): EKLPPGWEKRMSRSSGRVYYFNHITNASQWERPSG

LYRpSPS [Cdc25c-S214]
Kd (Pin1 WW domain): 72000 nM

PPApTPP [Myt1-T412]
Kd (Pin1 WW domain): 15000 nM

PSpYVNVQN [SHC (control)]
Kd (Grb2-SH2 domain): 18 nM

SPQPEpYVNQPDVR [ErbB2 pY1139]
Kd (Grb2-SH2 domain): 76 nM

STSpTPR [Myt1-T455]
Kd (Pin1 WW domain): 40000 nM

VNATpYVNVKCVA [c-MET pY1356]
Kd (Grb2-SH2 domain): 200 to 1000 nM

VPRpTPV [Cdc25c-T48]
Kd (Pin1 WW domain): 8000 nM

YSPTpSPS [Polll-CTD-S5]
Kd (Pin1 WW domain): 34000 nM

ePDZ-b1: second-generation affinity-matured variant of ePDZ-b, SEQ ID NO: 151 (HYNYHYYS)
Kd [1, 7]: 5 nM | koff ([1]; SPR): <3.7 × 10^−4 S^−1 | kon ([1]; SPR): 7.3 × 10^4 M^−1S^−1 | Affinity Enhancement [1]: 4960 | Kd [2, 8]: > 10000 nM | Specificity Index [2]: >2000 | reduction in affinity on Ala substitution at position −4 [3]: over 200 fold

ePDZ-b2: second-generation affinity-matured variant of ePDZ-b, SEQ ID NO: 143 (SYYGVS)
Kd [1, 7]: 4 nM | koff ([1]; SPR): <2.9 × 10^−4 S^−1 | kon ([1]; SPR): 7.0 × 10^4 M^−1S^−1 | Affinity Enhancement [1]: 6200 | Kd [2, 8]: > 10000 nM | Specificity Index [2]: >2500 | capture of target in pull-down (immunoprecipitation) [4]: captured a target peptide from E. coli lysate in a highly specific and quantitative manner | performance in Western blotting (ARVCF): superior to that of a commercially available monoclonal antibody

wt-PDZ: wild-type PDZ domain of Erbin (SEQ ID NO: 146) (YYDSHVS) [reference compound]
dissociation rate (in words) ([1]; SPR): too fast to measure | Kd [1, 9]: ~10000 nM | discrimination between ARVCF peptide and δ-catenin peptide [2]: almost equally | detection of target in Western blotting [5]: did not

B1: ePDZ-b: affinity clamp: circularly permutated erbin PDZ fused to engineered FN3, SEQ ID NO: 150, selected for ARVCF peptide (protein)
chain: MKHHHHHHHHHHSSDYKDDDDKGENLYFQGSPELGFSISGGVGGRGNPFRPDDDGIFVTRVQPEGPASKLLQPGDKIIQANGYSFINIEHGQAVSLLKTFQNTVELIIVREVGNGAKQEIRVRVEKDGGSGGVSSVPTNLEVVAATPTSLLISWDAYYDSHVSYYRITYGETGGNSPVQEFTVPGSKSTATISGLKPGVDYTITVYAHYNYHYYSSPISINYRT
Kd [1, 9]: 56 nM | Kd [1, 7]: 56 nM | koff ([1]; SPR): 1.1 × 10^−2 S^−1 | kon ([1]; SPR): 1.9 × 10^5 M^−1S^−1 | Affinity Enhancement [1]: 520 | discrimination between ARVCF peptide and δ-catenin peptide [2]: ~200 fold | Kd [2, 10]: > 10000 nM | Kd [2, 8]: > 10000 nM | Specificity Index [2]: >178 | IC50 (ARVCF peptide): 59 nM | detection of target in Western blotting [5]: detected the target

B2: ePDZ-a: affinity clamp: circularly permutated erbin PDZ fused to engineered FN3, SEQ ID NO: 149, selected for ARVCF peptide (protein)
chain: MKHHHHHHHHHHSSDYKDDDDKGENLYFQGSPELGFSISGGVGGRGNPFRPDDDGIFVTRVQPEGPASKLLQPGDKIIQANGYSFINIEHGQAVSLLKTFQNTVELIIVREVGNGAKQEIRVRVEKDGGSGGVSSVPTNLEVVAATPTSLLISWDASYYGVSYYRITYGETGGNSPVQEFTVPYSSSTATISGLKPGVDYTITVYAYSDYYGSHHYSPISINYRT
Kd [1, 9]: 56 nM | Kd [1, 7]: 56 ± 6 nM | koff ([1]; SPR): 1.5 × 10^−2 S^−1 | kon ([1]; SPR): 2.9 × 10^5 M^−1S^−1 | Affinity Enhancement [1]: 520 | Kd [2, 10]: 430 nM | Kd [2, 8]: 429 nM | Specificity Index [2]: 8 | IC50 (ARVCF peptide): 40 nM | sensitivity to Ala substitutions of the ARVCF peptide [6]: much less sensitive to the Ala substitutions | detection of target in Western blotting [5]: detected the target

B3: circularly permutated PDZ domain: erbin PDZ with original termini joined by Asn-Gly linker, new termini between residues 20 and 21 (protein)
chain: PELGFSISGGVGGRGNPFRPDDDGIFVTRVQPEGPASKLLQPGDKIIQANGYSFINIEHGQAVSLLKTFQNTVELIIVREVGNGAKQEIRVRVEKD
Kd ([1]; SPR equilibrium mode, target peptide fused to yeast SUMO, read-out: dissociation constant (Kd), ARVCF peptide): 11000 ± 700 nM
